{"source": "patent US9586995B2", "about": "“Compositions and methods of use for (pro)renin receptor” (University of Utah, priority 2012, dated 2017)", "key": {"[1]": {"test_system": "ENaC", "experiment": "ENaC activity (Ieq, amiloride-sensitive current) in mpkCCD cells", "type": "cell-based", "details": "for acute activation of ENaC by prorenin / second (chronic) phase of prorenin-increased sodium transport / ENaC activity: prorenin 10 nM; for acute activation of ENaC by prorenin: PRO20 1.5 μM, losartan 1.0 μM, apocynin 1 mM, eplerenone 10 mg/L; for second (chronic) phase of prorenin-increased sodium transport / ENaC activity: 6 h to 24 h; for Ieq: 10 nM for 5 min, control group 1.17+0.05", "description": "FIGS. 32A-H show the role of PRR in the acute regulation of ENaC activity in cultured CD cells. Confluent mpkCCD cells grown on Transwell membrane were pretreated for 30 min with PRO20 (1.5 μM), losartan (1.0 μM), apocynin (1 mM), or eplerenone (10 mg/L) and then treated with AngII (500 nM) or prorenin (10 nM). Ieq was measured by using EVOM and amiloride-sensitive Ieq was determined at the end of experiments. (A) Time course of Ieq changes in control, AngII, and AngII+PRO20 groups. (B) Amiloride-sensitive Ieq measured at 5 min for experiments in (A). (C) Time course of Ieq changes in control, prorenin, and prorenin+PRO20 groups. (D) Amiloride-sensitive Ieq measured at 5 min for experiments in (C). (E) Time course of Ieq changes in control, prorenin, and prorenin+losartan groups. (F) Amiloride-sensitive Ieq measured at 5 min for experiments in (E). (G) Amiloride-sensitive Ieq measured at 5 min in control, prorenin, and prorenin+apocynin groups. (H) Amiloride-sensitive Ieq measured at 5 min in control, prorenin, and prorenin+eplerenone groups. N=6-12 per group. Data are means±SE.\nFIGS. 33A-D show the role of PRR in chronic regulation of ENaC by prorenin in cultured CD cells. (A) Time course of Ieq changes in control, prorenin, prorenin+PRO20, and prorenin+losartan groups over 24 h in mpkCCD cells. (B) Time course of changes in Ieq during 24-h aldosterone treatment in mpkCCD cells. (C) Amiloride-sensitive Ieq in mpkCCD cells after exposure for 24 h to 10 nM prorenin in presence or absence of eplerenone. (D) Medium aldosterone concentration in primary rat IMCD cells exposed for 24 h to 10 nM prorenin alone or in combination with 1.5 μM PRO20 or 1.0 μM losartan.\nElectrophysiology experiments were performed on the immortalized mpkCCD cells once the cell monolayers reached confluence. The transepithelial voltage (Vte) and resistance (Rte) across cell monolayers were measured with an epithelial volt-ohmmeter (World Precision Instruments). The transepithelial current was calculated according to Ohm's law, Ite=Vte/Rte, and normalized by the surface area of the insert. AngII (500 nM) or prorenin (10 nM) was added to the apical side of the inserts, and amiloride (10 μM) was added at the end of experiments to calculate amiloride-sensitive sodium current as the difference between total current and amiloride-insensitive current."}, "[2]": {"test_system": "PRR", "experiment": "ICV infusion pressor response in WT and neuron-specific PRR knockout (Nefh-PRR) mice, telemetry", "type": "in vivo, mouse", "details": "for ΔMAP, pressor response to ICV infusion: Nefh-PRR mice, ICV 100 ng/ul at 0.3 ul/minute for 10 minutes", "description": "(§1) FIG. 6 is a series of graphs illustrating the pressor response to intracerebroventricular (ICV) infusion of carbachol (FIG. 6A), Ang II (FIG. 6B), renin (FIG. 6C), and prorenin (FIG. 6D) in wild-type (WT) and Nefh-PRR mice. WT and Nefh-PRR mice were implanted with telemetric transmitters and ICV cannula. Two weeks after recovery, mice were ICV infused (0.3 μl/min) with carbachol (100 ng/μl), Ang II (100 ng/μl), Ang II (100 ng/μl), +losartan (10 ng/μl), mouse renin (100 ng/μl), mouse prorenin (100 ng/μl), or mouse prorenin (100 ng/μl) +losartan (10 ug/μl) over 10 minutes. Blood pressure (BP) was recorded in conscious freely moving mice. *P<0.05 vs. WT.\n(§2) Neuron-specific PRR knockout mice (Nefh-PRR) and wildtype (WT) littermates (N=5/group) were each implanted with a telemetric probe for blood pressure (BP) recording and an intracerebroventricular (ICV) cannula for infusion of mouse prorenin (100 ng/ul), mouse renin (100 ng/ul), or an Ang II type 1 receptor (AT1R) blocker (losartan, 10 ug/ul) at 0.3 ul/minute for 10 minutes. Mouse prorenin infusion increased the BP (mmHg) in WT mice (ΔMAP: 41±5); however, the prorenin induced pressor response was abolished in Nefh-PRR mice (ΔMAP: 5±1)."}, "[3]": {"target": "T1, PRR (Mus musculus, UniProt Q9CYN9)", "T1 sequence (Q9CYN9 18-350)": "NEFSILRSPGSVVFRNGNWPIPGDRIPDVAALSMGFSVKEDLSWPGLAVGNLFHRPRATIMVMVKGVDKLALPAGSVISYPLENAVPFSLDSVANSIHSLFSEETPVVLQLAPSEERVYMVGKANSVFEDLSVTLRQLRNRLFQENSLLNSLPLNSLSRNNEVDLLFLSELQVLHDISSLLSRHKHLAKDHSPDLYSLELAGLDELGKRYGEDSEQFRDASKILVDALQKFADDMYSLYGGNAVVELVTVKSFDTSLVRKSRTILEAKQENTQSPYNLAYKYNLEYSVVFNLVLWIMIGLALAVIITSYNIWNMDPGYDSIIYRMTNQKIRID", "experiment": "Prorenin-induced pressor response with ICV PRR antagonist peptides in C57BI/6J mice", "type": "in vivo", "design": "from tissue; host or cells: brain of living C57Bl/6J mice (ICV infusion)", "details": "ICV mouse prorenin 100 ng/ul alone or with peptide 45 ng/ul, 0.3 ul/minute for 10 minutes", "description": "C57BI/6J mice (N=5/group) were each implanted with a telemetric probe for BP recording and an intracerebroventricular (ICV) cannula for infusion of mouse prorenin (100 ng/ul), PR10, or PR20 (45 ng/ul) at 0.3 ul/minute for 10 minutes. Mouse prorenin infusion increased the BP (mmHg) in WT mice (ΔMAP: 31.3±1.1); however, the prorenin-induced pressor response was abolished in either PR10 (ΔMAP: 16.9±4.4 vs. prorenin) or PR20 (ΔMAP: 12.7±0.5 vs. prorenin) infused mice."}, "[4]": {"target": "T1, PRR", "experiment": "ICV infusion pressor response in WT and neuron-specific PRR knockout (Nefh-PRR) mice, telemetry", "type": "in vivo", "design": "Neuron-specific PRR knockout mice (Nefh-PRR) and wildtype (WT) littermates (N=5/group) were each implanted with a telemetric probe; from tissue; host or cells: brain of living WT and Nefh-PRR mice (ICV infusion)", "details": "WT mice; ICV 100 ng/ul at 0.3 ul/minute for 10 minutes", "description": "as §1, §2"}}, "data": [{"molecule": "COc1cc(C(C)=O)ccc1O", "note": "[apocynin]", "values": [{"measurement": "acute activation of ENaC by prorenin", "setting": "[1]", "result": "completely abolished"}]}, {"molecule": "COC(=O)[C@@H]1CC2=CC(=O)CC[C@]2(C)[C@@]23O[C@@H]2C[C@@]2(C)[C@@H](CC[C@@]24CCC(=O)O4)[C@H]13", "note": "[eplerenone]", "values": [{"measurement": "second (chronic) phase of prorenin-increased sodium transport / ENaC activity", "setting": "[1]", "result": "effectively blocked"}, {"measurement": "acute activation of ENaC by prorenin", "setting": "[1]", "result": "unaffected"}]}, {"molecule": "CCCCc1nc(Cl)c(CO)n1Cc1ccc(-c2ccccc2-c2nn[nH]n2)cc1", "note": "[losartan]", "values": [{"measurement": "pressor response induced by prorenin or renin", "setting": "[2]; ICV losartan 10 ug/ul", "result": "completely blocked"}, {"measurement": "second (chronic) phase of prorenin-increased sodium transport / ENaC activity", "setting": "[1]", "result": "not"}, {"measurement": "acute activation of ENaC by prorenin", "setting": "[1]", "result": "not"}]}, {"molecule": "IFDNIISQGVLKEDVF (PRR antagonist PR10)", "values": [{"measurement": "ΔMAP, prorenin-induced pressor response", "setting": "[3]", "result": "16.9±4.4", "unit": "mmHg"}]}, {"molecule": "LPTDTTTFKRIFLKRMPSI (PRR antagonist) [PR20]", "values": [{"measurement": "ΔMAP, prorenin-induced pressor response", "setting": "[3]", "result": "12.7±0.5", "unit": "mmHg"}]}, {"molecule": "renin", "values": [{"measurement": "Ieq", "setting": "[1]", "result": "1.58+0.19 μA/cm2"}]}, {"molecule": "mouse renin: mouse renin, infused ICV (protein, UniProt P06281 72-402, looked up) Renin-1: SPVVLTNYLNTQYYGEIGIGTPPQTFKVIFDTGSANLWVPSTKCSRLYLACGIHSLYESSDSSSYMENGSDFTIHYGSGRVKGFLSQDSVTVGGITVTQTFGEVTELPLIPFMLAKFDGVLGMGFPAQAVGGVTPVFDHILSQGVLKEEVFSVYYNRGSHLLGGEVVLGGSDPQHYQGNFHYVSISKTDSWQITMKGVSVGSSTLLCEEGCAVVVDTGSSFISAPTSSLKLIMQALGAKEKRIEEYVVNCSQVPTLPDISFDLGGRAYTLSSTDYVLQYPNRRDKLCTLALHAMDIPPPTGPVWVLGATFIRKFYTEFDRHNNRIGFALAR", "values": [{"measurement": "ΔMAP, pressor response to ICV infusion", "setting": "[2]", "result": "27±2", "unit": "mmHg"}, {"measurement": "ΔMAP, pressor response to ICV infusion", "setting": "[4]", "result": "31±5", "unit": "mmHg"}]}, {"molecule": "mouse prorenin: mouse prorenin, ligand of PRR, infused ICV (protein) LPTRTATFERIPLKKMPSVREILEERGVDMTRLSAEWGVFTKRPSLTNLTSPVVLTNYLNTQYYGEIGIGTPPQTFKVIFDTGSANLWVPSTKCSRLYLACGIHSLYESSDSSSYMENGSDFTIHYGSGRVKGFLSQDSVTVGGITVTQTFGEVTELPLIPFMLAKFDGVLGMGFPAQAVGGVTPVFDHILSQGVLKEEVFSVYYNRGSHLLGGEVVLGGSDPQHYQGNFHYVSISKTDSWQITMKGVSVGSSTLLCEEGCAVVVDTGSSFISAPTSSLKLIMQALGAKEKRIEEYVVNCSQVPTLPDISFDLGGRAYTLSSTDYVLQYPNRRDKLCTLALHAMDIPPPTGPVWVLGATFIRKFYTEFDRHNNRIGFALAR", "values": [{"measurement": "ΔMAP, pressor response to ICV infusion", "setting": "[2]", "result": "5±1", "unit": "mmHg"}, {"measurement": "ΔMAP, prorenin-induced pressor response", "setting": "[3]", "result": "31.3±1.1", "unit": "mmHg"}, {"measurement": "ΔMAP, pressor response to ICV infusion", "setting": "[4]", "result": "41±5", "unit": "mmHg"}]}, {"molecule": "prorenin: prorenin added at 10 nM to mpkCCD cells; species not stated (protein) LPTRTATFERIPLKKMPSVREILEERGVDMTRLSAEWGVFTKRPSLTNLTSPVVLTNYLNTQYYGEIGIGTPPQTFKVIFDTGSANLWVPSTKCSRLYLACGIHSLYESSDSSSYMENGSDFTIHYGSGRVKGFLSQDSVTVGGITVTQTFGEVTELPLIPFMLAKFDGVLGMGFPAQAVGGVTPVFDHILSQGVLKEEVFSVYYNRGSHLLGGEVVLGGSDPQHYQGNFHYVSISKTDSWQITMKGVSVGSSTLLCEEGCAVVVDTGSSFISAPTSSLKLIMQALGAKEKRIEEYVVNCSQVPTLPDISFDLGGRAYTLSSTDYVLQYPNRRDKLCTLALHAMDIPPPTGPVWVLGATFIRKFYTEFDRHNNRIGFALAR", "values": [{"measurement": "Ieq", "setting": "[1]", "result": "3.16+0.07 μA/cm2"}]}]}
